{"source": "paper PMC9309889", "about": "“Cryo-EM Structure of an Atypical Proton-Coupled Peptide Transporter: Di- and Tripeptide Permease C” (Frontiers in Molecular Biosciences, 2022)", "proteins": {"B1": {"name": "Di- and tripeptide permease C (DtpC), wild type (natural protein, Escherichia coli, UniProt P39276 1-485, looked up)", "chain": "MKTPSQPRAIYYIVAIQIWEYFSFYGMRALLILYLTHQLGFDDNHAISLFSAYASLVYVTPILGGWLADRLLGNRTAVIAGALLMTLGHVVLGIDTNSTFSLYLALAIIICGYGLFKSNISCLLGELYDENDHRRDGGFSLLYAAGNIGSIAAPIACGLAAQWYGWHVGFALAGGGMFIGLLIFLSGHRHFQSTRSMDKKALTSVKFALPVWSWLVVMLCLAPVFFTLLLENDWSGYLLAIVCLIAAQIIARMMIKFPEHRRALWQIVLLMFVGTLFWVLAQQGGSTISLFIDRFVNRQAFNIEVPTALFQSVNAIAVMLAGVVLAWLASPESRGNSTLRVWLKFAFGLLLMACGFMLLAFDARHAAADGQASMGVMISGLALMGFAELFIDPVAIAQITRLKMSGVLTGIYMLATGAVANWLAGVVAQQTTESQISGMAIAAYQRFFSQMGEWTLACVAIIVVLAFATRFLFSTPTNMIQESND", "notes": "Di- and tripeptide permease C (DtpC, YjdL) of Escherichia coli; full-length cDNA amplified from the E. coli genome, cloned into pNIC-CTHF; The His tag was cut off with TEV protease; also called YjdL; DtpC WT; source: E. coli C41(DE3), purified in DDM (Ni-NTA, TEV cleavage, negative IMAC, SEC); not shown: His-Tag, C-terminal, cleaved"}}, "molecular_target": "the molecule itself", "test": "cryo-EM structure; DtpC-Nb26 complex in 0.015% DDM, 100 mM NaCl, 10 mM HEPES pH 7.5, 0.5 mM TCEP; inverted dimer at 3.0 Å, local focused refinement on one transporter at 2.7 Å"}
{"protein": "B1", "values": [{"measurement": "stoichiometry N", "value": 2}]}
